According to patent US20200239594A1 (MINERVA BIOTECHNOLOGIES, published 2020):

T1: MUC1* extracellular domain peptide (PSMGFR, primary sequence of the MUC1 growth factor receptor)
T1 construct: Synthetic peptide adsorbed onto ELISA plates; The immunogen carried an extra C-terminal cysteine for KLH conjugation; also called MUC1* peptide; PSMGFR peptide
T1 peptide: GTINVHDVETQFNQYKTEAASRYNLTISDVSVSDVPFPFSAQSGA


Experiments:
[1] = target: T1, MUC1* extracellular domain peptide …; test: ELISA on plate-adsorbed peptide; reference: refolded scFv before peptide affinity chromatography
[2] = target: T1, MUC1* extracellular domain peptide …; test: competition ELISA, peptide on plate, competitor: parent MIN-C2 antibody
Experimental: To test the ability of the Fab produced by papain digestion to compete with the parent antibody for binding to the MUC1* peptide, varying concentrations of the Fab were added. After wash steps, the ELISA was processed by standard methods.

| fold higher specific activity after antigen affinity purification [1] [fold] | fold improvement of specific binding after antigen affinity purification [1] [fold] | binding result [2] | Binder |
| --- | --- | --- | --- |
| ~10 | 10 | – | MIN-C2 scFv (heavy chain variable-linker-light chain variable, C-terminal poly-histidine tag) (scFv, part was further purified on a PSMGFR peptide column; also called scFv protein; recombinant scFv) scFv: EVQLEESGGGLVKPGGSLKLSCAASGFTFSGYAMSWVRQTPEKRLEWVATISSGGTYIYYPDSVKGRFTISRDNAKNTLYLQMSSLRSEDTAMYYCARLGGDNYYEYFDVWGAGTTVTVSSAKTTPPSVYGGGGSGGGGSGGGGSDIVITQSTASLGVSLGQRATISCRASKSVSTSGYSYMHWYQQRPGQPPKLLIYLASNLESGVPARFSGSGSGTDFTLNIHPVEEEDAATYYCQHSRELPFTFGGGTKLEIKRADAAPTVSVDHHHHHH |
| – | – | binds | MIN-C2 Fab (papain digestion of MIN-C2 antibody) (Fab, V domains shown, Enzymatic Fab of about 50 kD made by papain digestion of the parent mAb; also called monovalent form of MIN-C2) VH: EVQLEESGGGLVKPGGSLKLSCAASGFTFSGYAMSWVRQTPEKRLEWVATISSGGTYIYYPDSVKGRFTISRDNAKNTLYLQMSSLRSEDTAMYYCARLGGDNYYEYFDVWGAGTTVTVSS VL: DIVITQSTASLGVSLGQRATISCRASKSVSTSGYSYMHWYQQRPGQPPKLLIYLASNLESGVPARFSGSGSGTDFTLNIHPVEEEDAATYYCQHSRELPFTFGGGTKLEIKR |
